How the values were obtained:
[1] = biological target: FcγRIIB on Raji cells (human (endogenous in Raji)) (UniProt P31994); assay: flow cytometry on cells; 250.000 Raji cells (FcγRIIB+, CD20+) with 6G11 or light chain constructs 1000-0.005 nM (1:5 dilutions), 30 min RT in PBS-B; anti-human Fc PE secondary antibody
[2] = biological target: 6G11 (BI‐1206), full‐length antibody containing the PGLALA Fc mutations (human); assay: BLI; 6G11 or light chain construct (5 µg/mL) loaded on Protein A biosensors; FcγRIIB 125 to 15.6 nM in 1:2 dilutions, 60 s association, 40 s dissociation in kinetics buffer
[3] = biological target: S2B‐6G11 post MMP‐9 digestion and partial removal of the scFv on a 6G11‐based affinity column (human); assay: as above
[4] = biological target: S2N‐6G11 (S2N scFv fused to the N‐terminus of the 6G11 light chain via an MMP‐9 cleavable linker), prior to MMP‐9 digestion (human | chicken); assay: as above
S2N‐6G11 (S2N scFv fused to the N‐terminus of the 6G11 light chain via an MMP‐9 cleavable linker), prior to MMP‐9 digestion (human | chicken), sequence (heavy, as listed by the source, chain 1 of 4): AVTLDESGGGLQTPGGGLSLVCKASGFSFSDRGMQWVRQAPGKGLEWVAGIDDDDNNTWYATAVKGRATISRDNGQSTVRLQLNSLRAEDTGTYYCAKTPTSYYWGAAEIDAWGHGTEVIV
S2N‐6G11 (S2N scFv fused to the N‐terminus of the 6G11 light chain via an MMP‐9 cleavable linker), prior to MMP‐9 digestion (human | chicken), sequence (heavy, as listed by the source, chain 2 of 4): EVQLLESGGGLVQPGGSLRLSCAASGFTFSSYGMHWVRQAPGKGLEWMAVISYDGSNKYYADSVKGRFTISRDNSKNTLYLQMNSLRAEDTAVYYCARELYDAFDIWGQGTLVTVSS
S2N‐6G11 (S2N scFv fused to the N‐terminus of the 6G11 light chain via an MMP‐9 cleavable linker), prior to MMP‐9 digestion (human | chicken), sequence (light, as listed by the source, chain 3 of 4): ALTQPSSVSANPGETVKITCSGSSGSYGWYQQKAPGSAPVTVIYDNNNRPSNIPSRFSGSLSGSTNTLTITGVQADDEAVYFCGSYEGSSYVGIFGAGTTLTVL
S2N‐6G11 (S2N scFv fused to the N‐terminus of the 6G11 light chain via an MMP‐9 cleavable linker), prior to MMP‐9 digestion (human | chicken), sequence (light, as listed by the source, chain 4 of 4): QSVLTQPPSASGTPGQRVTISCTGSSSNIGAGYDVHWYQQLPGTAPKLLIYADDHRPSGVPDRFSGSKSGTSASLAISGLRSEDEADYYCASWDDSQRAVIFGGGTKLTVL

6G11 (BI‐1206), full‐length antibody containing the PGLALA Fc mutations (human), sequence (heavy, as listed by the source, chain 1 of 2): as the sequence (heavy, as listed by the source, chain 2 of 4) above
6G11 (BI‐1206), full‐length antibody containing the PGLALA Fc mutations (human), sequence (light, as listed by the source, chain 2 of 2): as the sequence (light, as listed by the source, chain 4 of 4) above
S2B‐6G11 post MMP‐9 digestion and partial removal of the scFv on a 6G11‐based affinity column (human), sequence (heavy, as listed by the source, chain 1 of 2): as the sequence (heavy, as listed by the source, chain 2 of 4) above
S2B‐6G11 post MMP‐9 digestion and partial removal of the scFv on a 6G11‐based affinity column (human), sequence (light, as listed by the source, chain 2 of 2): as the sequence (light, as listed by the source, chain 4 of 4) above

Substance | EC50 [1] [nM] | Kd [2] [nM] | Kd [3] [nM] | Kd [4] [nM]
6G11 (BI‐1206), full‐length antibody containing the PGLALA Fc mutations | 0.4 | – | – | –
His‐tagged human FcγRIIB extracellular domain protein (from UniProt P31994 43-217) (domain or fragment) | – | 32.1 | 5.9 | 8.3
